Laboratory results reported in publication PMC7654431.

Molecular target: T7 DNA polymerase gp5;thioredoxin (trx) (bacteriophage T7;Escherichia coli, UniProt P00581;P0AA25 1-704;2-109, |)
Test: SEC-SAXS-MALS

T7 DNA polymerase gp5;thioredoxin (trx), sequence (P00581 whole entry, chain 1 of 2): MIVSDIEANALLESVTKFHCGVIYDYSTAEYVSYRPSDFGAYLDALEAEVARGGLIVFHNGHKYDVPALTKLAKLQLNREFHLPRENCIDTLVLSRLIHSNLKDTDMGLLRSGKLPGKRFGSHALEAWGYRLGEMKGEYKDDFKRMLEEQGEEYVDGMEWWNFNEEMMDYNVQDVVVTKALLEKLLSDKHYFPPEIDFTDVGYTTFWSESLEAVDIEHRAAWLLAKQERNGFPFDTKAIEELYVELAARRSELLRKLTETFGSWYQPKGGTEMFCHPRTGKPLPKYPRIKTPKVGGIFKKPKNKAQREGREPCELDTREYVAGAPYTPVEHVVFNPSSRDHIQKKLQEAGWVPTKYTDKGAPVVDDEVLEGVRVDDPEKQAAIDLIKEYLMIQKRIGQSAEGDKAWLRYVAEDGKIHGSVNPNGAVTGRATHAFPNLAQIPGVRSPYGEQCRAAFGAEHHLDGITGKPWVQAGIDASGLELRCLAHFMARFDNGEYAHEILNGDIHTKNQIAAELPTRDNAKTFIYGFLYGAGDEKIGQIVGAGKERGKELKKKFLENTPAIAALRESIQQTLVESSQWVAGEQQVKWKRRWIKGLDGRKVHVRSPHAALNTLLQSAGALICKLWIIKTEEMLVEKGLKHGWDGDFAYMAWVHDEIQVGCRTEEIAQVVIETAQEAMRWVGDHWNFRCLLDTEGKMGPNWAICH
T7 DNA polymerase gp5;thioredoxin (trx), sequence (P0AA25 2-109, chain 2 of 2): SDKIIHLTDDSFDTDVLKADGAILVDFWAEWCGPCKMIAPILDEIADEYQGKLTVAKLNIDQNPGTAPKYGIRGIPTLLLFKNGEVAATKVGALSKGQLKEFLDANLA

B1: SAXS primer/template (dsDNA)
DNA 1: TGGCAGGCAGGTGGTCTTGCCGGTC
DNA 2: GATCCCTCGACCGGCAAGACCACCTGCCTGCCA
modifications: 3'-terminal ddC on primer
binding result: binds
